What was measured:
[1] = Absorption and fluorescence measurements; format: physicochemical; settings: for relative fluorescence quantum yield Φfluo: PBS pH 7.4, relative to commercial Cy5.Cl, λex = 640 nm, absorbance lower than 0.1; for Stokes shift Δs fluo / λem / λabs: aqueous PBS buffer 0.01 M, pH 7.4, T = 298 K; for λabs: diluted solution (µM)
Experimental: Photophysical properties (absorption, excitation, emission, and relative fluorescence quantum yield) of compounds 23 and 24 were measured in an aqueous PBS buffer solution (pH = 7.4, T = 298 K) and compared to the commercially available Cy5 to detect any potential degradation that could occur during the synthesis and purification steps. […] (λabs/λem = 648/662 nm, Δs fluo = 326 cm^−1 for 23, λabs/λem = 644/658 nm, Δs fluo = 330 cm^−1 for 24).
Absorption spectra were recorded in diluted solution (µM) in an aqueous PBS buffer (0.01 M, pH 7.4). Fluorescence quantum yields Φfluo were measured in diluted solutions with an absorbance lower than 0.1 using the following equation: ϕfluo, x=ϕfluo,ref(Gradx/Gradref)(nx2/nref2) where Φfluo is the fluorescence quantum yield; Grad is the gradient from the plot of integrated fluorescence intensity vs. absorbance; n the refractive index of the solvent; and the subscripts x and ref denote sample and reference. The fluorescence quantum yields of 23 and 24 were measured relative to the commercial Cy5.Cl in PBS for which Φfluo,ref = 0.13 [36]. The excitation of the reference and sample compounds was performed at the same wavelength (λex = 640 nm).

U-87 MG cells = assay: Cellular uptake, quantification of Cy5 incorporation; format: cell-based, human; settings: 24 h of incubation; Cy5 fluorescence of DMSO cell lysate (λex 645, λem 680 nm), calibration curve of each compound; n = 3
Experimental: Cellular uptake was evaluated using a confocal microscopy on U-87 MG spheroids after 1, 4, and 24 h of exposure with conjugates 23 and 24 and c(RGDfK)-Cy5 (25) at 1 µM. The fluorescence signal appeared to be stable over time and the distribution of the compounds was homogeneous over all cells and throughout the spheroids (Figure 3A). These three compounds were localized rapidly in the cell cytoplasm due to receptor internalization after ligand binding. As expected from photophysical properties, the fluorescence signal was higher for compound 24 compared to 23. […] The amount of compounds seemed to decrease slightly at 4 h but stayed relatively stable until 24 h and represented 25.8, 14.7, and 28.6 pmoles/10^6 cells, respectively, for compounds 23, 24 and 25. […]
U-87 MG cells were seeded in 12 multi-well plates at 10 × 10^4 cells/cm^2 and cultivated for 48 h. […] The fluorescence signals of Cy5 in the samples were measured in duplicate at an excitation wavelength of 645/9 nm and an emission wavelength of 680/20 nm (Tecan Infinite M200 Pro spectrofluorometer, Tecan, Männedorf, Switzerland). The fluorescence signals of known concentrations of Cy5-conjugates diluted in DMSO were used to draw a standard calibration curve. The concentration of Cy5 present in the samples (nM) was determined from the linear regression analysis of the standard calibration curve (Equation (1)). […] The results of the cellular uptake were expressed as the concentration of Cy5 (nM) incorporated per one million of cells (Equation (2)). […] (nM) = f (Fluorescence Intensity)(1) [Cy5] […]
Figure 3 Cellular uptake of fluorescent conjugates 23 and 24. […] The intrinsic fluorescence of the compounds corresponds to Cyanine 5 (red fluorescence, λex 631/28 nm, λem 692/40 nm). […] (B) Quantification of Cy5 incorporation by U-87 MG cells at 1, 4, and 24 h of incubation. The amount of each compound was calculated using the fluorescence of Cy5 extrapolated from the calibration curves of each compound and normalized to 10^6 cells. n = 3.

αvβ3 integrin = target: T1, αvβ3 integrin (Homo sapiens, UniProt P05106+P06756); assay: Integrin αvβ3 solid-phase binding assay (competition with coated vitronectin); settings: coated human vitronectin 1 µg/mL, integrin αvβ3 2 µg/mL, compounds 1.6 nM–20 µM, 1 h room temperature, OD 450 nm, 3 independent series in duplicate, ± SD in Figure 2, read-out: IC50, binding of αvβ3 integrin onto vitronectin
T1 construct: purchased Bio-techne, Lille, France
Experimental: The affinity of the compounds for integrin protein was evaluated in terms of the half maximal inhibitory concentration (IC50 values) using a solid-phase assay, as previously described by Tobias G. Kapp et al.. Briefly, the surface of Maxisorp microplates (NUNC, ThermoFicher Scientific, Paris, France) was coated with 1 µg/mL human vitronectin (Bio-techne, Lille, France) overnight at +4 °C. The non-specific sites were blocked with a TSB buffer (20 mM Tris-HCl, 150 mM NaCl, 1 mM CaCl2, 1 mM MgCl2, 1 mM MnCl2, pH 7.5, 1% BSA) (Sigma-Aldrich, Saint-Quentin-Fallavier, France) for 1 h at 37 °C. […] After 1 h incubation at room temperature, the plates were washed, and the amount of bound integrin was stained by incubation with 2 µg/mL of mouse anti-human CD51/61 (BD Pharmingen, Paris, France) and 1 µg/mL of anti-mouse IgG horseradish peroxidase conjugate antibody (Bio-techne, France). The enzymatic reaction was carried out in the dark by the addition of the enzyme substrate (Bio-techne, France) and stopped after 10 min by the addition of H2SO4 (Stop Solution, Bio-techne, France). The optical densities were measured at 450 nm. The values were blank subtracted, and the results were expressed as relative absorbance percentage in comparison to the wells containing only integrin αvβ3.
Affinities were estimated from 3 independent series performed in duplicate as IC50 values (i.e., the concentration of the compounds that displaced 50% of integrin binding calculated using one-site fit log-IC50 non-linear analysis regression using the GraphPad Prism 6 software (v 6.05, USA)).
Figure 2 Solid-phase binding assay.

[2] = Solubility in aqueous solution; format: physicochemical; settings: result in words
ectopic U-87 MG tumors = format: in vivo, female athymic nude mice
Experimental: (§1) In order to evaluate the in vivo biodistribution and tumor uptake of compound 24, which has the best photophysical and solubility properties in comparison to compound 23, mice bearing ectopic or orthotopic brain tumors were imaged in NIRF using a fluorescent small animal imager. […] Animal experiments were performed in accordance with the protocols approved by the French Ministry of Research after a review by the local animal protection and use committee (APAFIS# 30902). For ectopic tumor biodistribution, a U-87 MG tumor model was established by subcutaneous injection of U-87 MG cells (2 × 10^6 in 100 µL of 5% glucose solution) into the front right flank of female athymic nude mice (Charles Rivers, Wilmington, MA, USA). The mice were subjected to imaging studies when the tumor volume reached 500 mm^3 (3–4 wk after inoculation) at 1, 4, 6, and 24 h after the intravenous administration of the compounds 24 and 25 at 0.5 nmoles in 100 µL of water for injections mixed with ethanol (20% EtOH/80% water). For brain tumor imaging, U-87 MG spheroids of approximatively 500 µm diameter were implanted in the cortex of the right hemisphere and imaged 24 h after the administration of 0.5 nmoles of the compound 24 or 25. In the same manner, major organs were harvested and subjected to small animal NIRF imaging (Fluorvivo, Indec Biosystem, Los Altos, CA, USA). A customized filter set (excitation, 510–550 nm; emission, 630–690 nm) was used for data acquisition. All fluorescence images were acquired with a 1-s exposure. The fluorescence intensity of each tissue was measured after subtraction of the background signal from an ROI of the same size and shape drawn over an area without any tissue using imageJ. Figure 4 Biodistribution of compounds 24 and 25 in tumors and organs. (A) Kinetic distribution of compounds 24 and 25 in ectopic U-87 MG tumors at 1, 4, 6, and 24 h (representative images of the whole mice with the solid arrows showing the ectopic tumors at 24 h). (B) Biodistribution of the compounds in major organs at 24 h after their administration. […] An average of ratio uptake was calculated. […]

[3] = test system: orthotopic U-87 MG brain tumor; format: in vivo, female athymic nude mice; settings: 24 h after intravenous administration of 0.5 nmoles; NIRF imaging; average of ratio uptake
Experimental: as §1

[4] = cited from earlier work
Experimental: Photophysical properties (absorption, excitation, emission, and relative fluorescence quantum yield) of compounds 23 and 24 were measured in an aqueous PBS buffer solution (pH = 7.4, T = 298 K) and compared to the commercially available Cy5 to detect any potential degradation that could occur during the synthesis and purification steps. […] (λabs/λem = 648/662 nm, Δs fluo = 326 cm^−1 for 23, λabs/λem = 644/658 nm, Δs fluo = 330 cm^−1 for 24). Conjugation of the ... || Absorption spectra were recorded in diluted solution (µM) in an aqueous PBS buffer (0.01 M, pH 7.4). Fluorescence quantum yields Φfluo were measured in diluted solutions with an absorbance lower than 0.1 using the following equation: ϕfluo, x=ϕfluo,ref(Gradx/Gradref)(nx2/nref2) where Φfluo is the fluorescence quantum yield; Grad is the gradient from the plot of integrated fluorescence intensity vs. absorbance; n the refractive index of the solvent; and the subscripts x and ref denote sample and reference. The fluorescence quantum yields of 23 and 24 were measured relative to the commercial Cy5 ...

IC50 (αvβ3 integrin) [nM] | Structure (SMILES) | relative fluorescence quantum yield Φfluo [1] [%] | Stokes shift Δs fluo [1] [cm⁻¹] | λem [1] [nm] | λabs [1] [nm] | amount of compound incorporated by U-87 MG cells (U-87 MG cells) [pmoles/10^6 cells] | solubility in aqueous solution [2] | ratio of fluorescence uptake, ectopic tumor to healthy brain (ectopic U-87 MG tumors; 24 h after intravenous administration of 0.5 nmoles, NIRF imaging, average of ratio uptake) [fold] | route of elimination (ectopic U-87 MG tumors; mouse, in vivo) | ratio of fluorescence uptake, orthotopic brain tumor to healthy brain [3] [fold] | fluorescence quantum yield Φfluo of the reference ([4]; PBS) [%] | fluorescence quantum yield Φfluo,ref ([4]; in PBS, as fraction)
10 | CN1\C(=C/C=C/C=C/C2=[N+](CCCCCC(=O)NCCCn3cc(COCC[C@H]4O[C@H](CF)[C@@H](OCc5cn(CCCCCC(=O)NCCCC[C@@H]6NC(=O)[C@@H](Cc7ccccc7)NC(=O)[C@H](CC(=O)O)NC(=O)CNC(=O)[C@H](CCCNC(=N)N)NC6=O)nn5)[C@H]4OCc4cn(CCCCCC(=O)NCCCC[C@@H]5NC(=O)[C@@H](Cc6ccccc6)NC(=O)[C@H](CC(=O)O)NC(=O)CNC(=O)[C@H](CCCNC(=N)N)NC5=O)nn4)nn3)c3ccccc3C2(C)C)C(C)(C)c2ccccc21 [Compound 23] | 8 | 326 | 662 | 648 | 25.8 | poor solubility | – | – | – | – | –
16 | CN1\C(=C/C=C/C=C/C2=[N+](CCCCCC(=O)NCCCn3cc(COCC[C@H]4O[C@H](CF)[C@@H](OCc5cn(CCOCCOCCOCCOCCC(=O)NCCCC[C@@H]6NC(=O)[C@@H](Cc7ccccc7)NC(=O)[C@H](CC(=O)O)NC(=O)CNC(=O)[C@H](CCCNC(=N)N)NC6=O)nn5)[C@H]4OCc4cn(CCOCCOCCOCCOCCC(=O)NCCCC[C@@H]5NC(=O)[C@@H](Cc6ccccc6)NC(=O)[C@H](CC(=O)O)NC(=O)CNC(=O)[C@H](CCCNC(=N)N)NC5=O)nn4)nn3)c3ccccc3C2(C)C)C(C)(C)c2ccccc21 [Compound 24] | 14 | 330 | 658 | 644 | 14.7 | – | 100 | urinary tract and liver metabolism | 40 | – | –
8540 | CN1C(=CC=CC=CC2=[N+](CCCCCC(=O)NCCCC[C@@H]3NC(=O)[C@@H](Cc4ccccc4)NC(=O)[C@H](CC(=O)O)NC(=O)CNC(=O)[C@H](CCCNC(=N)N)NC3=O)c3ccccc3C2(C)C)C(C)(C)c2ccccc21 [Compound 25] | – | – | – | – | 28.6 | – | – | – | – | – | –
– | CN1/C(=C/C=C/C=C/C2=[N+](CCCCCC(=O)O)c3ccccc3C2(C)C)C(C)(C)c2ccccc21 [Cy5] | – | – | – | – | – | – | – | – | – | 13 | 0.13

From article PMC9782470, “Clickable C-Glycosyl Scaffold for the Development of a Dual Fluorescent and [^18F]fluorinated Cyanine-Containing Probe and Preliminary In Vitro/Vivo Evaluation by Fluorescence Imaging” (Pharmaceuticals, 2022)
